For two substances, Immunoreactivity (%), LD50, immunotoxin cytotoxicity (Mab-Zap saporin) on C4-2 cells and LD50, immunotoxin cytotoxicity (Mab-Zap saporin) on PSMA-3T3 cells results are on record in US20040033229A1.

Several values for one entry are separate records, joined by “and”; a condition that tells them apart may be missing. Equal entries are not always repeated.

In assay [1] the target is prostate specific membrane antigen (PSMA), full-length, on the cell surface (human) (UniProt Q04609). Put plainly: fraction of radiolabel bound to cells, PSMA-3T3.
prostate specific membrane antigen (PSMA), full-length, on the cell surface (human), sequence (Q04609 whole entry): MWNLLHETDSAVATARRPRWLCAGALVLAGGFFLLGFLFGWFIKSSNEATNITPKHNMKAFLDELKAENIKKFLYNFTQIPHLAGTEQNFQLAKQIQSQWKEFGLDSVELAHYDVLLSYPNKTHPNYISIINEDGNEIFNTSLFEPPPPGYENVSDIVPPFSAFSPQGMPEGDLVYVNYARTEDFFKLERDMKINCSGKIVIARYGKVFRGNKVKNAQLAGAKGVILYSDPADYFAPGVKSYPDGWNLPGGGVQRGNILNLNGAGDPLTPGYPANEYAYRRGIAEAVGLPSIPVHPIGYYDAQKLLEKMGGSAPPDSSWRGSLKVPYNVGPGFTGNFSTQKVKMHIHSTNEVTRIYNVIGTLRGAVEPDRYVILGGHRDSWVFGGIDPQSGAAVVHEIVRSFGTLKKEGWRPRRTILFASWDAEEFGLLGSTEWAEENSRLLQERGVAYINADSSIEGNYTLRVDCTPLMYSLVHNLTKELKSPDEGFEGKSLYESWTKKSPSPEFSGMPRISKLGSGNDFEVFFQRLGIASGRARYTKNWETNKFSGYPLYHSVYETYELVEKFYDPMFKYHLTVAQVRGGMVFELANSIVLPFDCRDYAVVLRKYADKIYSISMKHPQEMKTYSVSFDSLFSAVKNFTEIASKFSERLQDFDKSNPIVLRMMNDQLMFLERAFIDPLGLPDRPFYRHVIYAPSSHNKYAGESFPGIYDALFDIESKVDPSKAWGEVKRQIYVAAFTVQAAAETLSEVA
The target is the same in assay [2]. Put plainly: fraction of radiolabel bound to cells, average.
For assay [3] the target is unchanged. Put plainly: cell-based or functional assay.

Regarding 111In radiolabeled mJ591 (antibody), the Immunoreactivity (%) in assay [1] was 58.5% and 54.9%; in assay [2], 56.7%.
On to mAb J591 (antibody), for which, in assay [3], the LD50, immunotoxin cytotoxicity (Mab-Zap saporin) on C4-2 cells is 88.2 pM and the LD50, immunotoxin cytotoxicity (Mab-Zap saporin) on PSMA-3T3 cells came to 89 pM.
